Data on one molecule can be found in article PMC11615311 (Nature Communications, 2024).

In experiment [1] the target is BAZ1B-SMARCA5 complex (purified) (human | , UniProt Q9UIG0 1-1483; O60264 1-1052). Description: pull-down.
The target of experiment [2] is UAF1-USP1 complex (purified) (UniProt Q8TAF3 1-677; O94782 1-785). Description: pull-down.
UAF1-USP1 complex (purified), sequence (Q8TAF3 whole entry, chain 1 of 2): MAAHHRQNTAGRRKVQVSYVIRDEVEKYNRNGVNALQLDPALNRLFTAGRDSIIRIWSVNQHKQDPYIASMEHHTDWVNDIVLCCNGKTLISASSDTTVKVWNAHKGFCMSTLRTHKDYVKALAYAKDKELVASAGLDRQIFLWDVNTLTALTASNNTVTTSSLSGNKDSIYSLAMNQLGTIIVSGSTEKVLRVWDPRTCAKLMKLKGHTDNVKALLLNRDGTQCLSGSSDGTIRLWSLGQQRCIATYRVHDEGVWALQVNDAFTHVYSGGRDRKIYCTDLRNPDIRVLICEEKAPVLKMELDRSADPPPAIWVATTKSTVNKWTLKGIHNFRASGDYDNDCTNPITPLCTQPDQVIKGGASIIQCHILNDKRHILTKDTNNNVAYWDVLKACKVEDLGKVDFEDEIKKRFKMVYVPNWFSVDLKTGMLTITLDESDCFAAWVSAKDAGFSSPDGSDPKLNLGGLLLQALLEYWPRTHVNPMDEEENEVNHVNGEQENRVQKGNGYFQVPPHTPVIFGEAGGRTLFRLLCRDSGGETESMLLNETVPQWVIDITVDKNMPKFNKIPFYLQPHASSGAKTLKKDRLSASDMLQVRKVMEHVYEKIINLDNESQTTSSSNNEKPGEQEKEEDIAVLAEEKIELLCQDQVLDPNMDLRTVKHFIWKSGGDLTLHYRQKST
UAF1-USP1 complex (purified), sequence (O94782 whole entry, chain 2 of 2): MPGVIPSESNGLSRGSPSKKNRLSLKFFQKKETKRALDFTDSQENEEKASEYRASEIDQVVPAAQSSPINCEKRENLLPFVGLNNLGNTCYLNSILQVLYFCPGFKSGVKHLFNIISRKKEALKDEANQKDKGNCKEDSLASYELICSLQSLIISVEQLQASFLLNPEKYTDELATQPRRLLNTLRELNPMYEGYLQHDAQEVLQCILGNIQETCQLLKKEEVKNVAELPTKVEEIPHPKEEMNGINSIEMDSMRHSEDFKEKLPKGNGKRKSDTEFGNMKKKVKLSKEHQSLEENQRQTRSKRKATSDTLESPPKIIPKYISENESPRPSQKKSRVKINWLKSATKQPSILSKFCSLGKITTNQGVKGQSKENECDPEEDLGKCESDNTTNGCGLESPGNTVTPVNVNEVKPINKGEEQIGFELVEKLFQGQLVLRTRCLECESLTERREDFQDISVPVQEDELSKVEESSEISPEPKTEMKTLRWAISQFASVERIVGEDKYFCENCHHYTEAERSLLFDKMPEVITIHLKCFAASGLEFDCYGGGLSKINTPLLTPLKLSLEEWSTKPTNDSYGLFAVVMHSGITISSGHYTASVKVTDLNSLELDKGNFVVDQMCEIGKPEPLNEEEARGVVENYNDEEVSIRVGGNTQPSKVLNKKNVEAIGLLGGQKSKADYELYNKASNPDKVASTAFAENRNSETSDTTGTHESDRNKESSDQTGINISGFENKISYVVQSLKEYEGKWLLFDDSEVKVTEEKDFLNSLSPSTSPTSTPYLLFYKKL

BAZ1B-SMARCA5 complex (purified), sequence (Q9UIG0 whole entry, chain 1 of 2): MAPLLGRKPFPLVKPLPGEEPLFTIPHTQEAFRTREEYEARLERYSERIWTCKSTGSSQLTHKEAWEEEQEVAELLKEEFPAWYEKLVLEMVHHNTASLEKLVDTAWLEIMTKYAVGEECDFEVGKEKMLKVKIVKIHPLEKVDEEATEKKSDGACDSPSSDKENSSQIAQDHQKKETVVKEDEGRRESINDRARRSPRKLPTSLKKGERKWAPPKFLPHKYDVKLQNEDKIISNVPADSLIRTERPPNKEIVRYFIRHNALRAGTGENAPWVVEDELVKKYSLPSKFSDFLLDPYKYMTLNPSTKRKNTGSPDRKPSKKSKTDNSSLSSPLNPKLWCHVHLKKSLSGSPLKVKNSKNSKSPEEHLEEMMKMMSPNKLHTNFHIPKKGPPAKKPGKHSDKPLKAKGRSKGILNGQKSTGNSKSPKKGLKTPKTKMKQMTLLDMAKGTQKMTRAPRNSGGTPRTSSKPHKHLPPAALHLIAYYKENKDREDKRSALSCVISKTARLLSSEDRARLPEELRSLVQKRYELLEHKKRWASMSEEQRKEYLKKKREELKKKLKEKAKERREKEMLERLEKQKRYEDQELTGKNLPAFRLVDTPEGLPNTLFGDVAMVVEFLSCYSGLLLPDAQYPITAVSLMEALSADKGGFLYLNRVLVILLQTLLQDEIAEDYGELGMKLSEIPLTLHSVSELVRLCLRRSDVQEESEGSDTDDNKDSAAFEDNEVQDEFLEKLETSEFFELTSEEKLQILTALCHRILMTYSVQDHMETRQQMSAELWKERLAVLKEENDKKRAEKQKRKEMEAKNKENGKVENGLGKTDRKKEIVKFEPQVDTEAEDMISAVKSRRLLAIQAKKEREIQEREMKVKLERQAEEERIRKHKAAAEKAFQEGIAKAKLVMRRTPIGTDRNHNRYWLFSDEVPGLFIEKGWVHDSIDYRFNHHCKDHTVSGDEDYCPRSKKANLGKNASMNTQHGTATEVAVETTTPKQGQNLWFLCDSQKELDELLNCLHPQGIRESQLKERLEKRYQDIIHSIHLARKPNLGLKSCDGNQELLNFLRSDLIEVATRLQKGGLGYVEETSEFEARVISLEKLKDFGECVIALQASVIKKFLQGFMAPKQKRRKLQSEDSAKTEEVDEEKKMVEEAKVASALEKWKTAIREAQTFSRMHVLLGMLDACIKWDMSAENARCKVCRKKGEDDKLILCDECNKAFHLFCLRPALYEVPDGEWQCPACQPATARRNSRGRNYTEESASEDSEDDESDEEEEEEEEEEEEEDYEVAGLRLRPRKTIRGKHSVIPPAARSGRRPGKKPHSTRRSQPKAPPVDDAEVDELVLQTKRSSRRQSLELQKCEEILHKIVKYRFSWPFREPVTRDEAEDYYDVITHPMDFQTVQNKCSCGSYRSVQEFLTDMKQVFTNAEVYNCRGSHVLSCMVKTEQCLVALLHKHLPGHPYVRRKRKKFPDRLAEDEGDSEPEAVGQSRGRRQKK
BAZ1B-SMARCA5 complex (purified), sequence (O60264 whole entry, chain 2 of 2): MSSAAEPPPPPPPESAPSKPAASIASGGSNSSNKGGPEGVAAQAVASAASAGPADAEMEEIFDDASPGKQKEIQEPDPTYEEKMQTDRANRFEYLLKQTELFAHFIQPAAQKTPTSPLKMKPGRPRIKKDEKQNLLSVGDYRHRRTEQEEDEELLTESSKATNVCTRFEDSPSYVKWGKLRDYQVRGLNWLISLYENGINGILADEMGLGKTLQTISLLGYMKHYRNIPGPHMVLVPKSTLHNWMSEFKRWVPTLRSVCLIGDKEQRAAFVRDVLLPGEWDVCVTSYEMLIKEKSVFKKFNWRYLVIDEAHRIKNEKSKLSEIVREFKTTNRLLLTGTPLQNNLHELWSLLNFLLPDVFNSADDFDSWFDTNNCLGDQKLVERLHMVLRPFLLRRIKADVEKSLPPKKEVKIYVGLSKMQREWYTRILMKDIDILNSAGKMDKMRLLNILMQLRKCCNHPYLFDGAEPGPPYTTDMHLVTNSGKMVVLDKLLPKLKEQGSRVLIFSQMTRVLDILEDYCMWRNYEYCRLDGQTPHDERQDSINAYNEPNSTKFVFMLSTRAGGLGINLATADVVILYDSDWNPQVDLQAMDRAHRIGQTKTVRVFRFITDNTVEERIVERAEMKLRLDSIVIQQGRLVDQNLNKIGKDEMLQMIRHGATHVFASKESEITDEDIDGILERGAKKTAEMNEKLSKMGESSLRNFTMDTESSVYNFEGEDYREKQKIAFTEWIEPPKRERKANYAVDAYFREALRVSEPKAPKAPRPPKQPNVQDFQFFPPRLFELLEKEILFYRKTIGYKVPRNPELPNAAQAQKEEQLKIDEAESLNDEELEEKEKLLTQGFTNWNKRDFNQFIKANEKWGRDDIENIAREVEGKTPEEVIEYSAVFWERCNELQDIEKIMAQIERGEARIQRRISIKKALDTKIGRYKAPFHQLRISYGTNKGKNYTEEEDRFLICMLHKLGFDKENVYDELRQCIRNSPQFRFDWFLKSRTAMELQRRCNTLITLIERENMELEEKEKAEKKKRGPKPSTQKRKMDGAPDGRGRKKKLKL

B1: MBP-tagged ATAD5 (1–603) (domain or fragment, human, UniProt Q96QE3 1-603, looked up)
chain: MVGVLAMAAAAAPPPVKDCEIEPCKKRKKDDDTSTCKTITKYLSPLGKTRDRVFAPPKPSNILDYFRKTSPTNEKTQLGKECKIKSPESVPVDSNKDCTTPLEMFSNVEFKKKRKRVNLSHQLNNIKTENEAPIEISSDDSKEDYSLNNDFVESSTSVLRYKKQVEVLAENIQDTKSQPNTMTSLQNSKKVNPKQGTTKNDFKKLRKRKCRDVVDLSESLPLAEELNLLKKDGKDTKQMENTTSHANSRDNVTEAAQLNDSIITVSYEEFLKSHKENKVEEIPDSTMSICVPSETVDEIVKSGYISESENSEISQQVRFKTVTVLAQVHPIPPKKTGKIPRIFLKQKQFEMENSLSDPENEQTVQKRKSNVVIQEEELELAVLEAGSSEAVKPKCTLEERQQFMKAFRQPASDALKNGVKKSSDKQKDLNEKCLYEVGRDDNSKKIMENSGIQMVSKNGNLQLHTDKGSFLKEKNKKLKKKNKKTLDTGAIPGKNREGNTQKKETTFFLKEKQYQNRMSLRQRKTEFFKSSTLFNNESLVYEDIANDDLLKVSSLCNNNKLSRKTSIPVKDIKLTQSKAESEASLLNVSTPKSTRRSGRISST
In the case of B1, the binding result in experiment [1] and in experiment [2] was “binds” each time.
